Assay results taken from paper PMC13036084, “Cryo-EM structure of Chlamydomonas reinhardtii Photosystem I complexed with cytochrome c6” (Nature Communications, 2026).
Numbering of substitutions follows the chain as printed. In names and notes the source's numbering stands. Values belong to the binder of their own block, whether it stands above or below them.

Molecular target: T1, PSAF subunit of Chlamydomonas reinhardtii Photosystem I (Chlamydomonas reinhardtii, UniProt P12356 63-227)
T1 construct: PSAF, Photosystem I subunit, Chlamydomonas reinhardtii; the transit peptide segment is included in the numbering of the PDB data; numbers count on: the mature protein; Stood in the experiment as a subunit of the PSI complex m2
T1 sequence (looked up): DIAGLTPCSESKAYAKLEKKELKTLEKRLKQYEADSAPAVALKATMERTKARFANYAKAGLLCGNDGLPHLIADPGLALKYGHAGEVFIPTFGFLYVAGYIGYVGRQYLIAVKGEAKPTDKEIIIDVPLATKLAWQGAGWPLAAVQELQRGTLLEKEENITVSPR
Assay: cross-linking; non-activated Cyt c6 (4 μM) and PSI (40 μg Chl/mL) in 30 mM HEPES/KOH pH 7.5, 1 mM ascorbate, 0.1 mM DAD, 3 mM MgCl2, 0.03% α-DDM with 5 mM EDC and 10 mM sulfo-NHS, 45 min, room temperature, dark; quenched with 50 mM Tris pH 8.0; SDS-PAGE and Western blot with anti-Cyt c6
Conditions: both partners purified

- binding result: binds
B1: Chlamydomonas reinhardtii cytochrome c6 E69Q/E70Q (natural protein)
chain: ADLALGAQVFNGNCAACHMGGRNSVMPEKTLDKAALEQYLDGGFKVESIIYQVENGKGAMPAWADRLSQQEIQAVAEYVFKQATDAAWKY
modifications: heme group (heme protein)
notes: cytochrome c6, Chlamydomonas reinhardtii; also called Cyt c6 (E69Q/E70Q); E69Q/E70Q double mutant; source: E. coli BL21, co-transformed with pEC86 (Ccm genes), purified (DEAE anion exchange, size exclusion)

- binding result: binds
B2: Chlamydomonas reinhardtii cytochrome c6 E71Q (natural protein)
chain: B1 chain with Q69E, Q70E, E71Q
modifications: heme group (heme protein)
notes: cytochrome c6, Chlamydomonas reinhardtii; also called Cyt c6 (E71Q); source: E. coli BL21, co-transformed with pEC86 (Ccm genes), purified (DEAE anion exchange, size exclusion)
